# According to patent US8975044B2, “Polynucleotides encoding for frizzled-binding agents and uses thereof” (OncoMed Pharmaceuticals, Inc., priority 2008, dated 2015):
# Tests used:
# [1] = system: OMP-C28 colon tumor xenografts; assay: OMP-C28 colon tumor xenograft growth; type: in vivo, NOD/SCID mice; settings: 18R5 10 mg/kg IP twice weekly, single agent; p=0.02
# Experimental: In another embodiment anti-FZD antibodies were analyzed for their ability to reduce the growth of OMP-C28 colon tumor xenografts. Dissociated human OMP-C28 cells (10,000 per animal) were injected subcutaneously into 6-8 week old male NOD/SCID mice. Tumor growth was monitored weekly and tumor measurements were initiated once tumors were palpable. On day 24 mice with average tumor volume of 129 mm^3 were randomized into 4 groups of 10 animals each. Animals were injected with either control antibody, or 18R5 IgG antibody (10 mg/kg), or irinotecan (7.5 mg/kg) or combination of both 18R5 and irinotecan. Administration of the antibodies and irinotecan was performed via injection into the intra-peritoneal cavity, twice weekly. Tumors were measured twice a week and tumor volume was determined using the formula ½(a×b^2); where a=length, and b=breadth. Data are expressed as mean and mean±S.E.M. Group means were compared using Student's two-tailed, unpaired t test.
# PE13 breast tumor = PE13 breast tumor recurrence study; type: in vivo, Nod-Scid mice; settings: taxol 15 mg/kg twice per week + 18R5 20 mg/kg once per week vs taxol + control antibody; taxol stopped at day 70
# Experimental: PE13 breast tumor recurrence study with 18R5 mAb: PE13 breast tumor cells were injected into Nod-Scid mice and allowed to grow until the tumors had reached approximately 100 mm^3. The animals were randomized into two groups (n=10) and given taxol (15 mg/kg, twice per week)+Control antibody (black squares) or the same dose of taxol+Anti-FZD 18R5 (gray open circles). Antibodies were dosed at 20 mg/kg once per week. Taxol treatments were stopped at day 70 and the antibody treatments continued.
# [2] = system: OMP-Pn4 pancreatic tumor xenografts; assay: OMP-Pn4 pancreatic tumor xenograft growth; type: in vivo, NOD/SCID mice; settings: 10 mg/kg IP once weekly
# Experimental: In another embodiment, anti-FZD antibodies were analyzed for their ability to reduce the growth of OMP-Pn4 pancreatic tumor xenografts. NOD/SCID mice were purchased from Harlan (Indianapolis, Ind.) and allowed to acclimate for several days prior to the studies. The establishment and characterization of in vivo cancer stem cell-driven pancreas xenograft models were described previously (Li et al., Cancer Res., 67:1030-7, 2007). For efficacy studies, OMP-Pn4 human pancreatic tumor cells were dissociated into single cell suspensions, resuspended in 1:1 (v/v) mixture of FACS buffer (Hank's balanced salt solution [HBSS] supplemented with 2% heat-inactivated fetal bovine serum and 20 mM Hepes) and Matrigel (BD Bioscience, San Jose, Calif.) and implanted subcutaneously into the right flank region of 6-7 weeks old male NOD/SCID mice with a 25-gauge needle containing 50,000 cells/100 μL. Tumor growth was monitored weekly and tumor measurements were initiated once tumors were palpable. […] Tumor growth was measured by with an electronic caliper (Coast Tools Company, San Leandro, Calif.). Tumors were measured once a week and tumor volume was determined using the formula ½(a×b^2); where a=length (longest axis of the tumor), and b=breadth (shortest axis of the tumor). […] Data are expressed as mean±S.E.M. Differences in mean values between groups were analyzed by non-parimetric t test. […]
# PN4 tumors = assay: Alcian blue staining of treated PN4 tumor sections; type: in vivo, mice; settings: relative to controls and the gemcitabine alone group; data not shown
# Description: Another characteristic of endocrine, secretory or ductal cells is the production of mucin and these cells can be detected by alcian blue staining (van Es et al. 2005. Nature 435 959-63). It was observed during harvesting and processing of tumors that the 18R5 treated tumors were much more mucinous than control treated tumors. Therefore, PN4 tumors sections from mice treated with control antibody, gemcitabine alone, 18R5 alone, or 18R5 plus gemcitabine were stained with alcian blue.
# PN4 pancreatic tumor = PN4 pancreatic tumor recurrence study; type: in vivo, Nod-Scid mice; settings: gemcitabine 75 mg/kg once per week for 5 weeks, then antibody 10 mg/kg once per week
# Experimental: PN4 pancreatic tumor recurrence study with 18R5 mAb: PN4 pancreatic tumor cells were injected into Nod-Scid mice and allowed to grow until the tumors had reached approximately 250 mm^3. The animals were given gemcitabine (75 mg/kg, once per week) for 5 weeks until tumors had regressed. The animals were randomized into two groups and given control antibody (black squares) or anti-FZD 18R5 (gray open circles). Antibodies were dosed at 10 mg/kg once per week.
# Wnt signaling = assay: 8xTCF luciferase reporter assay in STF293 cells with Wnt-overexpressing HEK293 cells; type: cell-based, human; settings: 20 μg/ml; Wnt1, Wnt2, Wnt3, Wnt7A, Wnt7B, Wnt10B, Wnt3A inhibited; 18 hours
# Experimental: In further experiments, the ability of the 18R8 antibody to antagonize signaling by different Wnt ligands was determined. HEK 293 cells were transfected with Wntl, Wnt2, Wnt2b2, Wnt3, Wnt3a, Wnt7a, Wnt7b, Wnt8a, Wnt9b, and Wnt10b for forty eight hours by Fugene 6 (Roche). Wnt3A conditioned medium (“WNT3ACM”) was used as a positive control of activation. STF293 cells, were cultured in DMEM supplemented with antibiotics and 10% FCS and treated with 20 μg/ml 18R8 antibody or no antibody. The Wnt-overexpressing HEK293 cells were then added. Eighteen hours following treatment, luciferase levels were measured using a dual luciferase assay kit.
Molecule,reduction in tumor growth [1] [%],tumor regression and recurrence (PE13 breast tumor),"tumor growth, monotherapy [2]",alcian blue staining (PN4 tumors),tumor recurrence after gemcitabine treatment (PN4 pancreatic tumor),inhibition of signaling by different Wnt ligands (Wnt signaling)
"18R5: human anti-FZD antibody; VH SEQ ID NO:10 (as 18R8), VL SEQ ID NO:14; binds FZD1, 2, 5, 7, 8 (antibody, V domains shown, 18R5/18R8 heavy chain variable region (VH); 18R5 light chain variable region (VL)) VH: EVQLVESGGGLVQPGGSLRLSCAASGFTFSHYTLSWVRQAPGKGLEWVSVISGDGSYTYYADSVKGRFTISSDNSKNTLYLQMNSLRAEDTAVYYCARNFIKYVFANWGQGTLVTVSS VL: DIELTQPPSVSVAPGQTARISCSGDNIGSFYVHWYQQKPGQAPVLVIYDKSNRPSGIPERFSGSNSGNTATLTISGTQAEDEADYYCQSYANTLSLVFGGGTKLTVLG",40,enhance the rate of tumor regression and to delay tumor recurrence,did not result in a significant reduction in tumor growth,clear increase in alcian blue staining,delay tumor recurrence,–
"18R8: human anti-FZD antibody from phage display; VH SEQ ID NO:10, VL SEQ ID NO:12; binds FZD1, 2, 5, 7, 8 (antibody, V domains shown, 18R5/18R8 heavy chain variable region (VH); 18R8 light chain variable region (VL)) VH: EVQLVESGGGLVQPGGSLRLSCAASGFTFSHYTLSWVRQAPGKGLEWVSVISGDGSYTYYADSVKGRFTISSDNSKNTLYLQMNSLRAEDTAVYYCARNFIKYVFANWGQGTLVTVSS VL: DIELTQPPSVSVAPGQTARISCSGDKLGKKYASWYQQKPGQAPVLVIYEKDNRPSGIPERFSGSNSGNTATLTISGTQAEDEADYYCSSFAGNSLEVFGGGTKLTVLG",–,–,–,–,–,inhibit signaling of a variety of Wnts
